According to patent publication US20040014147A1 (RIGEL PHARMACEUTICALS, published 2004):
Where two headings read alike, the source gives them in different places. Where no end group is shown, it is not given here.

Tests used:
human adenosine kinase [1] = biological target: T1, human adenosine kinase (human, UniProt P55263 22-362); assay: cell-based or functional assay
human adenosine kinase [2] = biological target: T1, human adenosine kinase; assay: cell-based or functional assay; remark: listed apart in the source

T1 sequence (P55263 other isoform, or with tags, fused parts or gaps): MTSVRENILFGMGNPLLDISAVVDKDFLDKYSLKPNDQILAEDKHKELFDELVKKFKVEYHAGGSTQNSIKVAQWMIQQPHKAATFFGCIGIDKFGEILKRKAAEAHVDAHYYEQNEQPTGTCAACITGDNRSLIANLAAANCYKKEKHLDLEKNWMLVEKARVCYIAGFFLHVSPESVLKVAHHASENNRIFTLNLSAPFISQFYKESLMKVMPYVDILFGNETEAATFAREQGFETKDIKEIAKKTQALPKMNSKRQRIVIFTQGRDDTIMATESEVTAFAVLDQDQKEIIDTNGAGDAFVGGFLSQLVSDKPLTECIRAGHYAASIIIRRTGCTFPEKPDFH

B1: peptide AR02E8 wt (peptide, not shown: large carriers)
peptide: DTMQVQCGVCRSGYVVAFWDVGP
modifications: cysteine pairing not given here; also: expressed as GAL4/BFP-linker-peptide fusion, fusion sequences not given here
- Reporter Ratio (human adenosine kinase [1]): 1.77
- endogenous ε inhibition ratio (human adenosine kinase [1]): 15.3
- Reporter Ratio (human adenosine kinase [2]): 2.93

Binder: DTMQVQCGVCAGGYVVAFWDVGP (peptide, not shown: large carriers) [peptide AR02E8RS]
- Reporter Ratio (human adenosine kinase [2]): 1.46

Binder: DTMQVQCGAGRSGYVVAFWDVGP (peptide, not shown: large carriers) [peptide AR02E8VC]
- Reporter Ratio (human adenosine kinase [2]): 1.13

Binder: DTMQVQCGVCRSGAGVAFWDVGP (peptide, not shown: large carriers) [peptide AR02E8YV]
- Reporter Ratio (human adenosine kinase [2]): 1.07
